Article PMC11382887, “Molecular mechanism of HNF-1A–mediated HNF4A gene regulation and promoter-driven HNF4A-MODY diabetes”

Tests used:
[1] = molecular target: T1, HNF-1A DD-DBD (HNF-1A 1-279) (UniProt P20823 1-279); test: ITC; text refers to ref 36; Methods also list RA among the titrations done here; ITC: 20 mM HEPES pH 7.5, 200 mM NaCl, 1 mM TCEP, 30 C, 250 uM dsDNA into 50 uM protein; BLI: streptavidin sensor with BiotinTEG dsDNA, buffer not in material; details: protein: recombinant; tags: His6 removed by TEV; chain copies: 2; label: 5' BiotinTEG on forward strand (BLI only); blunt
[2] = molecular target: T1, HNF-1A DD-DBD (HNF-1A 1-279); test: ITC; increase vs WT not significant; ITC: 20 mM HEPES pH 7.5, 200 mM NaCl, 1 mM TCEP, 30 C, 250 uM dsDNA into 50 uM protein; BLI: streptavidin sensor with BiotinTEG dsDNA, buffer not in material; details: protein: recombinant; tags: His6 removed by TEV; chain copies: 2; label: 5' BiotinTEG on forward strand (BLI only); blunt
[3] = molecular target: T1, HNF-1A DD-DBD (HNF-1A 1-279); test: ITC; ITC: 20 mM HEPES pH 7.5, 200 mM NaCl, 1 mM TCEP, 30 C, 250 uM dsDNA into 50 uM protein; BLI: streptavidin sensor with BiotinTEG dsDNA, buffer not in material; details: protein: recombinant; tags: His6 removed by TEV; chain copies: 2; label: 5' BiotinTEG on forward strand (BLI only); blunt
[4] = molecular target: T1, HNF-1A DD-DBD (HNF-1A 1-279); test: BLI; kinetic Kd (koff/kon); ITC: 20 mM HEPES pH 7.5, 200 mM NaCl, 1 mM TCEP, 30 C, 250 uM dsDNA into 50 uM protein; BLI: streptavidin sensor with BiotinTEG dsDNA, buffer not in material; details: protein: recombinant; tags: His6 removed by TEV; chain copies: 2; label: 5' BiotinTEG on forward strand (BLI only); blunt
[5] = molecular target: T1, HNF-1A DD-DBD (HNF-1A 1-279); test: ITC; 2:1 protein:DNA stoichiometry; ITC: 20 mM HEPES pH 7.5, 200 mM NaCl, 1 mM TCEP, 30 C, 250 uM dsDNA into 50 uM protein; BLI: streptavidin sensor with BiotinTEG dsDNA, buffer not in material; details: protein: recombinant; tags: His6 removed by TEV; chain copies: 2; label: 5' BiotinTEG on forward strand (BLI only); blunt
[6] = molecular target: T1, HNF-1A DD-DBD (HNF-1A 1-279); test: BLI; ITC: 20 mM HEPES pH 7.5, 200 mM NaCl, 1 mM TCEP, 30 C, 250 uM dsDNA into 50 uM protein; BLI: streptavidin sensor with BiotinTEG dsDNA, buffer not in material; details: protein: recombinant; tags: His6 removed by TEV; chain copies: 2; label: 5' BiotinTEG on forward strand; blunt
[7] = molecular target: T1, HNF-1A DD-DBD (HNF-1A 1-279); test: BLI; kinetic Kd (koff/kon); kon ~3x lower, koff ~3x higher; ITC: 20 mM HEPES pH 7.5, 200 mM NaCl, 1 mM TCEP, 30 C, 250 uM dsDNA into 50 uM protein; BLI: streptavidin sensor with BiotinTEG dsDNA, buffer not in material; details: protein: recombinant; tags: His6 removed by TEV; chain copies: 2; label: 5' BiotinTEG on forward strand (BLI only); blunt

T1 sequence (P20823 1-279): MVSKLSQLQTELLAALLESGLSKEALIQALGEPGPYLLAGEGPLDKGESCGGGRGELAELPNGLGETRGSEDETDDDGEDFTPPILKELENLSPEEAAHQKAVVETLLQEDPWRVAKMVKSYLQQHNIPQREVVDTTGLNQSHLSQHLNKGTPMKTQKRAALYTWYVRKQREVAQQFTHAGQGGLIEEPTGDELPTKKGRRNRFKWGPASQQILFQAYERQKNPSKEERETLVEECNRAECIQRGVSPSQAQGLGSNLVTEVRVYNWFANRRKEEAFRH

B1: RA (rat albumin promoter) (dsDNA)
DNA 1: CTTGGTTAATAATTCACCAGA
DNA 2: TCTGGTGAATTATTAACCAAG
B1 was tested, and the Kd [1] was 100 ± 50 nM.

B2: P2 -181G>A (dsDNA)
DNA 1: ACTGATTACTCTTTAACGTAT
DNA 2: ATACGTTAAAGAGTAATCAGT
Binder B2 has a Kd [2] of 600 nM.

B3: P2 -169C>T (dsDNA)
DNA 1: ACTGGTTACTCTTTAATGTAT
DNA 2: ATACATTAAAGAGTAACCAGT
With B3 the Kd [3] was 1200 nM and the “Kd fold change vs P2 WT” value [4] was ~5 fold Kd vs P2 WT.

B4: P2 WT (P2-HNF4A promoter) (dsDNA)
DNA 1: ACTGGTTACTCTTTAACGTAT
DNA 2: ATACGTTAAAGAGTAACCAGT
Work on B4 yielded a Kd [5] of 304 ± 134 nM.

B5: Randomized sequence (dsDNA)
DNA 1: TCATCATATCATGCTATAAAT
DNA 2: ATTTATAGCATGATATGATGA
B5: no binding [6].

B6: P2 -181G>T (dsDNA)
DNA 1: ACTGTTTACTCTTTAACGTAT
DNA 2: ATACGTTAAAGAGTAAACAGT
B6 was tested, and the Kd [3] was 700 nM and the binding signal [7] was ~10 fold Kd vs P2 WT.
